Data published in the supplement of paper PMC9170038.

Test system: MS2 coat protein
Test: apparent KD of MS2 coat protein; designed switch direction (-1 OFF switch, 1 ON switch): -1; higher = weaker reporter binding
Method in brief: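 Designed RNA switches with common flanks were transcribed on Illumina chips by stalled E. coli RNA polymerase and titrated with SNAP-549-labelled MS2 coat protein, from 0.7 or 1.5 nM doubling to 3 µM, in Tris-HCl pH 7.5 buffer with KCl, MgCl2, BSA, DTT, tRNA and Tween-20. Steps lasted 0.8–1.5 h (lowest) to 10–20 min (highest). Titrations ran without input, with 200 uM small-molecule ligand, or with an oligonucleotide input. Normalised cluster fluorescence was curve-fitted, and apparent KD is the per-design median over clusters.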

[1] = Eterna round: R95, input ligand: FMN 200 uM
[2] = Eterna round: R95, input ligand: microRNA oligo, concentration not stated
[3] = Eterna round: R95, input ligand: none
[4] = input ligand: microRNA oligo, concentration not stated

Sequence	apparent KD of MS2 coat protein (input ligand: FMN 200 uM)	apparent KD of MS2 coat protein (input ligand: none)	apparent KD of MS2 coat protein [2]	further results
GUCCGACAUGAGGAUCACCCAUGUGAGGAUAUGCGAUUAGCUGCUAGGUAGUUAGUAUGUAGAAGGUGCAUGAA [EX1 #75] (Eterna round: R97, puzzle: Exclusion 1)	18.8 nM	17.5 nM		
GUCCUCGUGGCGCCUAAACACAUGAGGAUCACCCAUGUACAGGCUUUUUGCCGUCUUAUAAUAAAACCGAGGAUACG [Zaveonqu] (puzzle: Sensor v3, turn-off variant 1)			121 nM	apparent KD of MS2 coat protein [1]: 20.3 nM; apparent KD of MS2 coat protein [3]: 20.9 nM
GUCCUGUGGCAGGAUAUGAAAACGUAGCAACGGUCAGAAGGGCCAACAUGAGGAUCACCCAUGUACCCGUAUGG [Eternabot (L1) Solution 62] (Eterna round: R97, puzzle: Exclusion 6)	24.3 nM	19.9 nM		
GUCGAACAUGAGGAUCACCCAUGUGAGGAUAUGCGAAUUUCAUCAAAAGAUGAAAUUUGCAGAAGGCACACGAC [Omei Ex1 A15] (Eterna round: R97, puzzle: Exclusion 1)	26.4 nM	23.4 nM		
GUCGCAAUGCAGGAUAUCCUGCUAUUCAAGGGAGGAGAAGGGCAGACAUGAGGAUCACCCAUGUGGUCCGUGCC [Eternabot (L1) Solution 3] (Eterna round: R97, puzzle: Exclusion 6)	160 nM	170 nM		
GUCGUGCGGCAGUGCUGUACGAGUACAUGAGGAUCACCCAUGUAGGAUAUGGUUCGUUUUGCGUGCUAGAAGGGCGUGCGUUGA [Excl-NG3-LRO20] (Eterna round: R96, puzzle: Exclusion NG 3)	20 nM	22 nM		apparent KD of MS2 coat protein [4]: 14 nM
GUCUAGAGAGGAUAUAUUUACAGUGUACGUCGGAUGAUCGCACUUGAGGAUCACCCAAGUAGAAGGCUCGAGGG [EX2 #31] (Eterna round: R97, puzzle: Exclusion 2)	875 nM	1850 nM		
GUGAGUAGUCAGGAUAUGCUGUACAAAAGUACAGCAGAAGGGAUUACAUGAGGAUCACCCAUGUGUACUUCAUG [Omei Ex6 B10] (Eterna round: R97, puzzle: Exclusion 6)	940 nM	322 nM		
GUGAGUGGUCAGGAUAUGCUGUACAAAAGUACAGCAGAAGGGAUUACAUGAGGAUCACCCAUGUUUACUUCAUG [Omei Ex6 B4] (Eterna round: R97, puzzle: Exclusion 6)	125 nM	90.2 nM		
GUGCACGUAGGAUAUUAGAAGGAGAACAUGAGGAUCACCCAUGUUAUCCAUCACCUCCGCUAAGAAGGAUGGCCAC [EX5 C.6] (Eterna round: R97, puzzle: Exclusion 5)	14.1 nM	13 nM		
GUGCCGCGAGGAUAUACAGACGGGUCCAAAACGUGUCUCGGACUUGAGGAUCACCCAAGUAGAAGGCGUAUCAG [salish99_ex2_r4_619] (Eterna round: R97, puzzle: Exclusion 2)	27.8 nM	21.4 nM		
GUGCCGCGAGGAUAUACAGACGGGUCCAUAACGUGUCUCGGACUUGAGGAUCACCCAAGUAGAAGGCGUUUCAG [salish99_ex2_r4_623] (Eterna round: R97, puzzle: Exclusion 2)	19.9 nM	20.8 nM		
GUGCGGUGAGGAUAUACGUAGGUGAAAAUCUGUGUGUUCCUACAUGAGGAUCACCCAUGUAGAAGGCAUGUCAC [LRO-Excl2-14] (puzzle: Exclusion 2)			47.6 nM	
GUGCUAUAGGAAGGAUAUACUUCAUUAUUUAGACAUGAGGAUCACCCAUGUAACCUUAUGUAUGUGUAGAAGGUCCAUAGCUUA (Eterna round: R96, puzzle: Exclusion NG 2)	93.2 nM	38.8 nM		apparent KD of MS2 coat protein [4]: 35.1 nM
GUGGAACAUGAGGAUCACCCAUGUGAGGAUAUGUGAGAAGGAUUUGAGAGGGAGAGGGACAGAAGGCACUAGGA [JR_Exclu1_Sub084] (puzzle: Exclusion 1)			33.6 nM	apparent KD of MS2 coat protein [1]: 32.7 nM; apparent KD of MS2 coat protein [3]: 41.9 nM
GUGGCAUGAGGAUAUCGAGGUUAGUACAUGAGGAUCACCCAUGUUAUCCAGGUGUCGGUUCGAGAAGGCAUGGCAC [LRO-Ex5-13] (puzzle: Exclusion 5)			250 nM	
GUGGUACAUGAGGAUCACCCAUGUAAGGAUAUAGUCGGCUGGUGGUCGCGGGUGGUGGCUAGAAGGUGCGUGCG [-19.6, -18.2 kcal, A 19%] (Eterna round: R97, puzzle: Exclusion 1)	101 nM	114 nM		

Sequence	apparent KD of MS2 coat protein (input ligand: FMN 200 uM)	apparent KD of MS2 coat protein (input ligand: none)	apparent KD of MS2 coat protein [2]	further results
GUGUACAGAGGAUAUACUCGAAUCUAGCGAAGCUAGGUUUGACAUGAGGAUCACCCAUGUAGAAGGCUGUACAC [Dot plot directed A] (puzzle: Exclusion 2)			13.8 nM	
GUGUACAGAGGAUAUGCUGGAAUCUAGCGAAGCUAGGUUCCACAUGAGGAUCACCCAUGUAGAAGGCUGUACAC [Dot plot directed A v4] (puzzle: Exclusion 2)			19.4 nM	
GUGUAGAUAGGAUAUACAUGAGUCUAGCGAAGCUAGAUUCUACAUGAGGAUCACCCAUGUAGAAGGGUCUACAC [Fiskers Ex 2 - 28] (puzzle: Exclusion 2)			14.3 nM	
GUGUAGCGAGGAUAUACAUGAGGAUCACCCAUGUGAAUAAGAUAGAAUAAGAUAAAGUGUAGAAGGUGUAGUGU [Excluse me!!! 11 - Jieux - Exclusion 3] (puzzle: Exclusion 3)			56 nM	apparent KD of MS2 coat protein [1]: 46.7 nM; apparent KD of MS2 coat protein [3]: 54.5 nM
GUGUGCAGAGGAUAUACAUAGGAAUAUAAUAUAAUAUAAUUACAUGAGGAUCACCCAUGUAGAAGGCUGAGUGU [Excluse me!! 18 - Jieux - Exclusion 2] (puzzle: Exclusion 2)			24.3 nM	
GUGUGCUGAGGAUAUACACAGGAAUAGAAGAUAAGAUAAUCACAUGAGGAUCACCCAUGUAGAAGGCAGAGUGU [Excluse me!! 17 - Jieux - Exclusion 2] (puzzle: Exclusion 2)			13.9 nM	
GUGUGCUGAGGAUAUACAGAGGAAGAUAAUAGAAUAGAAUGACAUGAGGAUCACCCAUGUAGAAGGCAGAGUGU [Excluse me!! 14 - Jieux - Exclusion 2] (puzzle: Exclusion 2)			26.3 nM	apparent KD of MS2 coat protein [1]: 40.5 nM; apparent KD of MS2 coat protein [3]: 33.1 nM
GUGUUUCGUGUAGGAUAUGUUUGUGGGUCGCGGGCAGAAGGACAUGAGGAUCACCCAUGUUGCGGGUUCGGUUUGUGCGGGCGC [-22, -20 kcal and 14% A] (Eterna round: R96, puzzle: Exclusion NG 1)	23.6 nM	22.3 nM		apparent KD of MS2 coat protein [4]: 17.1 nM
GUUAAACAUGAGGAUCACCCAUGUAAGGAUAUGCUGAGGUAGCGCUGACGUGAAUGAAGCAGAAGGUACAAAUG [Mat - Mod of JL D64] (puzzle: Exclusion 1)			93.3 nM	apparent KD of MS2 coat protein [1]: 66.4 nM; apparent KD of MS2 coat protein [3]: 62 nM
GUUAACGUAGGAUAUUAGUACAUGCACAUGAGGAUCACCCAUGUUUAGUGGGUCUAGGAAUAAGAAGGGCGAUGAA [EX5 #22] (Eterna round: R97, puzzle: Exclusion 5)	472 nM	567 nM		
GUUAAGGUAGGAUAUACGAGAAUAUAGGGUAGAUAUAUAACACAUGAGGAUCACCCAUGUAGAAGGACCAAUUG [Mat - Exclusion 2 - Mod of my Tesla design - D57] (puzzle: Exclusion 2)			33.1 nM	
GUUAAGGUAGGAUAUACGAUAAGAUAGGGUAGAUAUAUAACACAUGAGGAUCACCCAUGUAGAAGGACCAAUUG [Mat - Exclusion 2 - Mod of my Tesla design - D56] (puzzle: Exclusion 2)			29.2 nM	
GUUAAUUGUCAGAUGGGUGACAUGAGGAUCACCCAUGUCACAAGCUUUUUGCUCGUCUUAUAAUUAACCCAUCUGAC [Stov1/11-A3] (Eterna round: R97, puzzle: Sensor, turn-off variant 1)	13.6 nM	13.3 nM		
GUUACACAUGAGGAUCACCCAUGUAAGGAUAUGCUGCGGUCGCGCUGACGUGACUGCAGCAGAAGGUACACAUG (puzzle: Exclusion 1)			86.8 nM	
GUUAGCGUAGGAUAUUAGUACAUGAACAUGAGGAUCACCCAUGUGAGGUGGGUCUUAGAUUAAGAAGGGCGAAGAA [EX5 #31] (Eterna round: R97, puzzle: Exclusion 5)	387 nM	447 nM		
GUUAGUUAAGGAUAUACUGGGAGCUGCGGCGUCUCGCCGCAACAUGAGGAUCACCCAUGUAGAAGGUGACCAUU [JL ViennaUCT Enbibi mod 5] (puzzle: Exclusion 2)			221 nM	
GUUCCGGGAGGAUAUACAUGAGGAUCACCCAUGUUCACCAGCUUUAGCUACGACCUAUGUAGAAGGUCUGGAGA [Eternabot (L1) Solution 36] (Eterna round: R97, puzzle: Exclusion 3)	46.7 nM	39.7 nM		
